For experiment [1], the target named is T1, human cation-independent mannose-6-phosphate receptor on cells (human, UniProt P11717 41-2491).
T1 construct: Endogenous receptor on MCF7 cells (live-cell imaging) and HeLa cells (LYTAC assays); also called cell-surface hCI-M6PR; native hCI-M6PR
Briefly: live-cell imaging of the uptake of AF488-labelled VHH by MCF7 cells. As to the method: For live-cell imaging, 2×10⁴ MCF7 cells/well were seeded in OptiMEM medium and incubated the next day with Lyso Tracker Deep Red DND-99 (50 nM, Thermo Fischer, L12492) for 30 minutes at 37° C., 5% CO₂ and washed with OptiMEM after which 7.5 μM AF488 labelled anti-CI-M6PR VHHs (in OptiMEM) were incubated on the cells. For every well (i.e. anti-CI-M6PR VHH), Z-stacks were taken at three different positions every six minutes, for three hours in total. Z-slices (12) were acquired per position at a step size of 1.5 μm and XY pixel size was 275 nm by 275 nm. Excitation and emission wavelengths of the fluorescent compounds used were LTR (λEx: 633 nm and λEm: 665-715 nm), AF488 (λEx: 488 nm and λEm: 520±35 nm), Hoechst/DAPI (λEx: 405 nm and λEm: 420-470 nm).

Experiment [2] concerns the target T1, human cation-independent …. Briefly: cell-based or functional assay.
For experiment [3], the target named is T2, human CI-M6PR domain1-3His6 (human, UniProt P11717 41-467).
T2 construct: Recombinant, made in HEK293 cells; Biotinylated with NHS-PEG4-biotin for BLI; unlabelled in SEC-MALLS and crystallisation; also called CI-M6PR hDom1-3His6; hDom1-3His6
Briefly: BLI, association pH 7.4, dissociation at pH 5.0, mean of local fits. On the procedure:
(§1) FIGS. 9A-9E. […] BLI was performed on an Octet Red96 (FortéBio) instrument in kinetics buffer (0.2 M Na₂HPO₄, 0.1 M Na⁺citrate, 0.01% bovine serum albumin, 0.002% Tween-20). Biotinylated human domain₁₋₃His₆ was immobilized on Streptavidin SA biosensors (Sartorius) to a signal of 0.6 nm. […] Between runs, biosensors were regenerated by three times 10 s exposure to regeneration buffer (10 mM glycine pH 3). The degree of association and dissociation was measured in δ nm over time(s).
(§2) FIGS. 10A-10E. […] BLI was performed on an Octet Red96 (FortéBio) instrument in kinetics buffer (0.2 M Na₂HPO₄, 0.1 M Na⁺citrate, 0.01% bovine serum albumin, 0.002% Tween-20). Biotinylated human domain₁₋₃His₆ was immobilized on Streptavidin SA biosensors (Sartorius) to a signal of 0.6 nm. […] Between assays, biosensors were regenerated by three times 10 s exposure to regeneration buffer (10 mM glycine pH 3). The degree of association and dissociation was measured in δ nm over time(s).
Background: In BLI a coated tip is dipped into the sample, and binding shifts an interference pattern.

Experiment [4] has as its target T2, human CI-M6PR domain1-3His6. Briefly: BLI, association pH 7.4, dissociation at pH 5.5, mean of local fits. As to the method:
as §1, §2

The target is the same in experiment [5]. The experiment in a line: BLI, association pH 7.4, dissociation at pH 6.0, mean of local fits. As to the method: as §1, §2
For experiment [6] the target is unchanged. Briefly: BLI, association pH 7.4, dissociation at pH 6.5, mean of local fits. As to the method: as §1, §2
For experiment [7] the target is unchanged. Briefly: BLI, biotinylated antigen on SA tips, global 1:1 fit, association at pH 7.4. As to the method:
(§3) Biotinylated human domain₁₋₃His₆ was immobilized on Streptavidin SA biosensors (Sartorius) to a signal of 0.6 nm. […] Between runs, biosensors were regenerated by three times 10 s exposure to regeneration buffer (10 mM glycine pH 3). The degree of association and dissociation was measured in δ nm over time(s).
as §2
(§4) After loading, the tips were incubated with VHHs serially diluted in pH 7.4 kinetic buffer during the association phase and dissociation was performed at pH 7.4, pH 6.5, pH 6.0, pH 5.5 and pH 5.0. All biosensor tips were then regenerated before analysis of the subsequent VHH. Table 3 summarizes the kinetic parameters retrieved after processing and curve fitting of the BLI measurements.

Experiment [8] has the same target. The experiment in a line: BLI, biotinylated antigen on SA tips, global 1:1 fit, dissociation at pH 7.4. As to the method: as §3, §2, §4

This is an account of results in patent US20240327525A1 (VIB VZW, published 2024).

Broadly, the koff is the first-order rate constant of dissociation. A lower koff goes with a long-lived complex. A word on the kon: it is the second-order rate constant of association. The Kd is the free concentration of one partner at which half of the binding sites on the other are occupied at equilibrium, for simple one-to-one binding.

B1: anti-CI-M6PR VHH9 (VHH)
VHH: QVQLQESGGGLVQAGGSLRLSCAASGTILSIKTMGWYRQAPGKEREWVATITSSSIPMYADSVKGRFTISRDDAKNTVYLQMNSLKPEDTGVYYCNAPWTDYWGQGTQVTVSS
modifications: Alexa Fluor 488 NHS ester label on amines
notes: Tag not specified
For B1, the binding result in experiment [1] is reported as “no binding (tested: 7.5 µM)”.

B2: anti-CI-M6PR VHH6 (VHH)
VHH: QVQLQESGGGLVQAGGSLRLSCAVSGSISSIGGMGWFRQAPGKQREFVAVILNNSGMTSYADSVKGRFTISRGNSKNTMYLQMNSLKPEDTAVYYCNYSGYWGQGTQVTVSS
modifications: Alexa Fluor 488 NHS ester label on amines
notes: Tag not specified
Turning to B2, the binding result in experiment [1] was “no binding (tested: 7.5 µM)”.

B3: anti-CI-M6PR VHH3 (VHH)
VHH: QVQLQESGGGLVQPGGSLRLSCAAFGLNFKNFDMIWFRQAPGEERDIVAAISSSSSTIWYEDSVKGRFTISRDNAKNTVYLQMNSLKPEDTAVYYCAAALTSWRRPDYWGQGTQVTVSS
modifications: Alexa Fluor 488 NHS ester label on amines
notes: Tag not specified
As to B3, the binding result in experiment [1] was “no binding (tested: 7.5 µM)”.

B4: anti-CI-M6PR VHH1 (VHH)
VHH: QVQLQESGGGLVQPGGSLRLSCVASGFTFDRYWMNWLRQIPGKEIEWVSTINTGGTGTYYDDSVKGRFSISRDDAKNTLYLTMNSLKTEDTAVYYCARGATYYRGNSAIRGQGTQVTVSS
As for B4, the “internalisation rate (live-cell imaging of AF488-VHH on MCF7 cells)” value in experiment [2] is 1.38e+06 summed AF-voxels/minute.

B5: anti-CI-M6PR VHH5 (VHH)
VHH: QVQLQESGGGLVQAGGSLKLSCAAAGRTFSRLAMGWFRQAPGKEREFVAAISENGDSIHYSDSVKGRFAVSRDNAKNTVYLQMNSLKPEDTAIYYCAADRAAYYCSGSGCYPSRAPAAASYDYWGQGTQVTVSS
As to B5, the “internalisation rate (live-cell imaging of AF488-VHH on MCF7 cells)” value in experiment [2] was found to be 687000 summed AF-voxels/minute.

B6: anti-CI-M6PR VHH4 (VHH)
VHH: QVQLQESGGGLVQAGGSLRLSCAASGRTFSNYVMGWFRQAPGKEREFVGSISQGGKMTYYPDSVKGRFTISRDNAKNTMYLQMDGLKPEDTAVYYCAVSRGYPMVRVSEVDYWGQGTQVTVSS
modifications: Alexa Fluor 488 NHS ester label on amines
notes: Tag not specified
As to B6, the binding result in experiment [1] is given as “no binding (tested: 7.5 µM)”.

B7: anti-CI-M6PR VHH2 (VHH)
VHH: QVQLQESGGGLVQPGGSLRLSCVFSGRTFMSYDVGWFRQAPGKERELLSSITSSSSSPYYAESVKGRFAVSRDGAKKTVYLRMNSLEPEDTAVYYCAARENWRNDWQYWGQTQVTVSS
modifications: Alexa Fluor 488 NHS ester label on amines
notes: Tag not specified
In the case of B7, the binding result in experiment [1] is listed as “no binding (tested: 7.5 µM)”.

B8: humanized variant VHH8h2 (VHH)
VHH: DVQLVESGGGLVQPGGSLRLSCAASGRTFNTYNWGWFRQAPGKEREFVAAIRWSSSKTSYADSVKGRFTISRDNSKNTVYLQMNSLRPEDTAVYYCAASIVDFTTNPSHFGSWGQGTLVTVSS
notes: Made in E. coli, IMAC purified; tag not specified
For the molecule B8, the koff in experiment [3] came out at 0.041 s⁻¹; in experiment [4], 0.0044 s⁻¹; in experiment [5] it was 0.0015 s⁻¹; in experiment [6], 0.0011 s⁻¹; in experiment [8], 0.00067 s⁻¹. The molecule further yielded a kon in experiment [7] of 220000 M⁻¹ s⁻¹. For the same molecule, binding in experiment [8] was put at a Kd of 3.07 nM.

B9: humanized variant VHH8h1 (VHH)
VHH: EVQLVESGGGLVQPGGSLRLSCAASGRTFNTYNWGWFRQAPGKEREFVAAIRWSSSKTSYADSVKGRFTISRDNSKNTVYLQMNSLRPEDTAVYYCAASIVDFTTNPSHFGSWGQGTLVTVSS
notes: as for B8
With B9, the koff in experiment [3] was determined as 0.029 s⁻¹; in experiment [4], 0.0043 s⁻¹; in experiment [5], 0.0015 s⁻¹; in experiment [6], 0.00053 s⁻¹; in experiment [8], 0.00048 s⁻¹. Further, the kon in experiment [7] amounted to 450000 M⁻¹ s⁻¹. Also, binding in experiment [8] was characterised by a dissociation constant (Kd) of 1.06 nM.

B10: humanized variant VHH8h3 (VHH)
VHH: DVQLVESGGGLVQAGGSLRLSCAASGRTFNTYNWGWFRQAPGKEREFVAAIRWSSSKTSYADSVKGRFTISRDNSKNTVYLQMNSLRPEDTAVYYCAASIVDFTTNPSHFGSWGQGTLVTVSS
notes: as for B8
For B10, the koff in experiment [3] was 0.033 s⁻¹; in experiment [4], 0.0041 s⁻¹; in experiment [5], 0.002 s⁻¹; in experiment [6], 0.0022 s⁻¹; in experiment [8] it was 0.00051 s⁻¹. In experiment [7], this molecule came in with an on-rate constant (kon) of 290000 M⁻¹ s⁻¹. In experiment [8], this molecule displayed a Kd of 1.76 nM.

B11: humanized variant VHH7h3 (VHH)
VHH: DVQLVESGGGLVQPGGSLRLSCAASGIIFSDNRMDWYRQAPGKQREWVATLASYGWKTYADSVKGRFTISRDNTKNTVYLQMNSLRPEDTAVYYCKASSPVLNDIWGQGTLVTVSS
notes: as for B8
Consider B11, for which the koff came to 0.019 s⁻¹ in experiment [3]; 0.015 s⁻¹ in experiment [4]; 0.013 s⁻¹ in experiment [5]; 0.011 s⁻¹ in experiment [6]; 0.0064 s⁻¹ in experiment [8]. The kon in experiment [7] amounted to 460000 M⁻¹ s⁻¹. The Kd in experiment [8] was 14 nM.

B12: humanized variant VHH7h1 (VHH)
VHH: EVQLVESGGGLVQPGGSLRLSCAASGIIFSDNRMDWYRQAPGKQREWVATLASYGWKTYADSVKGRFTISRDNSKNTVYLQMNSLRPEDTAVYYCKASSPVLNDIWGQGTLVTVSS
notes: as for B8
As for B12, the koff in experiment [3] is 0.02 s⁻¹; in experiment [4], 0.014 s⁻¹; in experiment [5], 0.012 s⁻¹; in experiment [6], 0.0097 s⁻¹; in experiment [8] it was 0.0071 s⁻¹. This molecule returned a kon in experiment [7] of 500000 M⁻¹ s⁻¹. Also, binding in experiment [8] was put at a Kd of 14.1 nM.

B13: humanized variant VHH7h2 (VHH)
VHH: DVQLVESGGGLVQPGGSLRLSCAASGIIFSDNRMDWYRQAPGKQREWVATLASYGWKTYADSVKGRFTISRDNSKNTVYLQMNSLRPEDTAVYYCKASSPVLNDIWGQGTLVTVSS
notes: as for B8
Turning to B13, the koff came to 0.019 s⁻¹ in experiment [3]; 0.014 s⁻¹ in experiment [4]; 0.011 s⁻¹ in experiment [5]; 0.0094 s⁻¹ in experiment [6]; 0.0064 s⁻¹ in experiment [8]. In experiment [7], this molecule returned a kon of 470000 M⁻¹ s⁻¹. The molecule also gave a dissociation constant Kd in experiment [8] of 13.6 nM.

B14: anti-CI-M6PR VHH10 (VHH)
VHH: QVQLQESGGGSVQAGGSLRLSCAPAGRTFSRIRMGWFRQAPGKEREFVAAISSGGLSYYADSMKGRFTISRDNAKNTVLLQMNSLEPDDTAVYYCAAVLNDYIDDYVARNPTLYDYWGQGTQVTVSS
modifications: Alexa Fluor 488 NHS ester label on amines
notes: Tag not specified
Consider B14, for which the binding result in experiment [1] was “no binding (tested: 7.5 µM)”.

B15: anti-CI-M6PR VHH11 (VHH)
VHH: QVQLQESGGGLVQAGDSLKLSCTASGPTFSEITGGWFRQVPGKEREFVASISSTGITTYYTDSVKGRFTVSRDNAKNTMYLQMNSLKPEDTGVYYCAARSTSRSIAITVGYDYWGQGTQVTVSS
modifications: Alexa Fluor 488 NHS ester label on amines
notes: Tag not specified
With B15, in experiment [1], the binding result is reported as “no binding (tested: 7.5 µM)”.
